The values that follow come from PMC2639713.

The target in this series is T1, mini-vRNAP K176C/S885C (Bacteriophage N4 (coliphage), UniProt Q859P9 998-2103, K1173C;S1882C).
T1 sequence: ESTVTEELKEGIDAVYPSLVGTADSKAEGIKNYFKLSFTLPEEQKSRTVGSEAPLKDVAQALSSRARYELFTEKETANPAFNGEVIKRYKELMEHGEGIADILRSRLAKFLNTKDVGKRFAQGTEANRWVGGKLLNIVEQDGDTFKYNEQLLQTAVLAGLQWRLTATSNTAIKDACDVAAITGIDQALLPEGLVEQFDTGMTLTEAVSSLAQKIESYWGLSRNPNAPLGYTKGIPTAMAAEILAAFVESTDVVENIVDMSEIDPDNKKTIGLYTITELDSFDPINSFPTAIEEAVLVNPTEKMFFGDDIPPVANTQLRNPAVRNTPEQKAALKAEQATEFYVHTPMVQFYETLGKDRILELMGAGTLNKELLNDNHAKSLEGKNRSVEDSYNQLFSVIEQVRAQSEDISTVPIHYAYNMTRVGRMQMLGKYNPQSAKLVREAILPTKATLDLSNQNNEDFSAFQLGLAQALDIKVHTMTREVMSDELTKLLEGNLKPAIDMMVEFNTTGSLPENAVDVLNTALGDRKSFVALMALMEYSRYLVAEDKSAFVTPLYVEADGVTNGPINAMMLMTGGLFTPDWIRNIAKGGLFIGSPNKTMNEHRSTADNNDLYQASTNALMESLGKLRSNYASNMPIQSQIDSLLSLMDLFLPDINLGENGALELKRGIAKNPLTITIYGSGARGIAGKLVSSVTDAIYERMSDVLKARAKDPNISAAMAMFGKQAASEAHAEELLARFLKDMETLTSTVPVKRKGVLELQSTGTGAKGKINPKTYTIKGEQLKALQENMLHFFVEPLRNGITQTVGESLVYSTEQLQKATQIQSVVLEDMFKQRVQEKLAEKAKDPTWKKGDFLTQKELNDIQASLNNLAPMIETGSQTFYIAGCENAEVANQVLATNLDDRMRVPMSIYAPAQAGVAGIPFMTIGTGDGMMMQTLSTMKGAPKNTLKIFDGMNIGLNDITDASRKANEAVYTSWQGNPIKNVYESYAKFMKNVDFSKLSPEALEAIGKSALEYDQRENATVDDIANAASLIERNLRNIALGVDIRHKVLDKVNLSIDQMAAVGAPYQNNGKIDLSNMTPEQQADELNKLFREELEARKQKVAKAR
Kind of series: UV cross-linking.

B1: 13mer -11 5-IdU promoter hairpin (-17 to -5) (structured_DNA)
DNA: GAAGCGTAGCTTC
modifications: 5-iodo-dU at position 7 (-11), written as T
With B1, the binding result is “binds”.
